Measured values as given in US20110086089A1, “USE OF P27KIP1 FOR THE PREVENTION AND TREATMENT OF HEART FAILURE” (UNIVERSITY HEALTH NETWORK, priority 2008, published 2011).
Marks after values point to notes of the source that are not given here.

B1: p27ΔC: TAT-conjugated p27 deficient in binding to CK2-alpha-prime (p27.1-86), serving as negative control (protein)
chain: MSNVRVSNGSPSLERMDARQADHPKPSACRNLFGPVDHEELTRDLEKHCRDMEEASQRKWNFDFQNHKPLEGKYEWQEVEKGSLPE
modifications: left off: small tags and cut ends
B2: CK2-α′: recombinant active TAT-conjugated CK2-alpha-prime protein with NES of HIV-1 Rev (protein)
chain: MPGPAAGSRARVYAEVNSLRSREYWDYEAHVPSWGNQDDYQLVRKLGRGKYSEVFEAINITNNERVVVKILKPVKKKKIKREVKILENLRGGTNIIKLIDTVKDPVSKTPALVFEYINNTDFKQLYQILTDFDIRFYMYELLKALDYCHSKGIMHRDVKPHNVMIDHQQKKLRLIDWGLAEFYHPAQEYNVRVASRYFKGPELLVDYQMYDYSLDMWSLGCMLASMIFRREPFFHGQDNYDQLVRIAKVLGTEELYGYLKKYHIDLDPHFNDILGQHSRKRWENFIHSENRHLVSPEALDLLDKLLRYDHQQRLTAKEAMEHPYFYPVVKEQSQPCADNAVLSSGLTAAR
modifications: left off: small tags and cut ends

Assays:
WT mice = assay: Chronic Ang II infusion for 14 days with daily TAT.protein injection, WT mice; type: in vivo; details: for FS / LVEDD / LVEF / LVESD / PWD: WT, echocardiography at 14 days
From the text: FIG. 5 is a series of graphs, blots and cell stainings showing CK2-alpha-prime is important for Ang II action in vivo. […] Transduction of recombinant active CK2-alpha-prime evokes cardiac hypertrophy in the absence of Ang II. (A) Heart-weight corrected for body-weight (left panel) and Masson-stain of myocardial cross sections (right panel). Mean±s.e.m., n=6-8. #P<0.01 vs sham saline. *P<0.01 vs sham saline. Scale bar, 2 mm. (B) Cell size analysis of adult cardiac myocytes isolated from 8-weeks-old mice. One hundred cells from three different mice were analyzed per group. Mean±s.e.m. #P<0.01 vs sham saline. *P<0.01 vs sham saline. **P<0.01 vs Ang II. (c) Determination of ANF/BNP mRNA levels by qRT-PCR. Mean±s.e.m., n=6-8. *P<0.05 vs sham saline. **P<0.05 vs Ang II. #P<0.05 vs sham saline. (D) Visualization of ectopic TAT-conjugated p27deltaPi by indirect immunofluorescence microscopy employing anti-His tag antibodies. Scale bar, 200 μm. (E) Left ventricular extracts (2-3 mg) were subjected to anti-CK2-alpha-prime immunocomplex kinase assays employing histone H1 substrate. Aliquots of kinase reactions were subjected to immunoblotting using antibodies as indicated on the left (top and middle panel). Levels of endogenously expressed or transduced proteins in total left ventricular heart tissue samples (60 μg) were analyzed by immunoblotting (bottom panel). Experiments to (E) were done twice with similar results.
To define whether CK2-alpha-prime -directed p27 turnover plays a role in vivo, the inventors chronically infused Ang II^72 and intraperitoneally injected recombinant TAT-conjugated CK2-alpha-prime and p27 variants in WT and p27^−/− mice (FIG. 9). […] These mice had normal LVEDD and LVESD when compared to Ang II-infused littermates (Table 3). […] CK2-alpha-prime activity and p27 destabilization were similar to their non-transduced Ang II-treated siblings (FIG. 5E).
(§1) Spontaneously beating cardiomyocytes from heart ventricles of neonatal rats were cultured and subjected to treatment with angiotensin II (Ang II). DMAT (2-dimethylamino-4,5,6,7-tetrabromo-1H-benzimidazol), DMSO, lactacystin and LLM were obtained from Calbiochem. Ang II was purchased from Sigma. Animal usage was in accordance with approved institutional animal care guidelines. Age-matched male WI C57BL/6 and p27^−/− mice were used in this study. For results shown in FIGS. 1 to 9: Ang II was chronically infused subcutaneously by osmotic pumps (model 2000, Alzet) at a dose of 1.4 μg/kg per minute for 14 days. TAT.proteins (10 mg/kg) were injected intraperitoneally once daily for 14 days. For results shown in FIGS. 10 to 12: Ang II was chronically infused subcutaneously by osmotic pumps (model 2000, Alzet) at a dose of 0.7 μg/kg per minute for 16 days. TAT.proteins (20 mg/kg) were injected intraperitoneally once daily for 8 days starting at day 8. Thoracic aortic banding (TAB) and pressure gradient measurements were performed as described^39.

p27 KO mice = assay: Chronic Ang II infusion for 14 days with daily TAT.protein injection, p27 KO mice; type: in vivo; details: p27 KO, echocardiography at 14 days
Description: (A) Heart-weight corrected for body-weight (left panel) and Masson-stain of myocardial cross sections (right panel). Mean±s.e.m., n=6-8. *P<0.01 vs sham saline. **P<0.01 vs Ang II. Scale bar, 2 mm. (B) Cell size analysis of adult cardiac myocytes isolated from 8-weeks-old mice. One hundred cells from three different mice were analyzed per group. Mean±s.e.m. *P<0.01 vs sham saline. **P<0.01 vs Ang II. (C) Determination of ANF/BNP mRNA levels by qRT-PCR. Mean±s.e.m., n=6-8. *P<0.01 vs sham saline. **P<0.01 vs Ang II. (D) CK2-alpha-prime-dependent kinase activity determined in whole left ventricular tissue samples. One typical result of two independent experiments is shown. (E, F) Ang II action induces apoptosis in p27^−/− mice. (E) Quantification of apoptotic cardiac myocytes (white arrowheads) by in situ TUNEL and GATA4 immunofluorescence histochemistry of left ventricular specimen. Mean±s.e.m., n=4. *P<0.01 vs sham saline. **P<0.05 vs sham saline. #P<0.01. (F) Determination of caspase 3 activity in total left ventricular heart tissue samples. Mean±s.e.m., n=4. *P<0.05 vs sham saline. #P<0.01. (G) Model for CK2-alpha-prime-dependent regulation of cardiac hypertrophy through phosphorylation of p27. Hypertrophic signals stimulate CK2-alpha-prime kinase that phosphorylates p27 at S83 and T187. Phosphorylation of p27 impairs its ability to bind to and inhibit […] activity. Subsequently, p27 is proteasomally degraded allowing hypertrophic growth to proceed.
Next, the inventors examined the effect of transduced proteins on cardiac hypertrophy in p27^−/− mice. Elimination of p27 gene function in these animals completely abrogated the ability of kd.CK2-alpha-prime to block cardiac hypertrophy (FIG. 6A-D). In contrast, hypertrophic responses to Ang II were abolished by p27deltaPi injections. Thus, reconstitution of p27 protein abundance in the myocardium of p27^−/− mice was accompanied by inhibition of Ang II action. Moreover, the inventors observed a marked increase in the number of TUNEL-positive cardiomyocyte nuclei in Ang II-infused p27^−/− mice (FIG. 6E,F) as compared to the WT controls. […] This was in direct contrast to the effect seen by ectopic kd.CK2-alpha-prime consistent with the inventors' previous work showing that CK2 is cardioprotective^73,74.
as §1

[1] = tested on: p27 phosphorylation at S83 and T187 in cardiomyocytes; assay: p27 phosphorylation at S83 and T187 in Ang II-treated cardiomyocytes (Western blot); type: cell-based, rat; details: Ang II 4 h; lentiviruses 72 h; DMAT 20 μM pre-incubated 30 min; TAT-conjugated CK2-alpha-prime 2.5 μg/ml 1 h
Description: FIG. 2 is a series of graphs and blots showing Ang II triggers CK2-alpha-prime-dependent phosphorylation of p27 on S83 and T187 in cardiomyocytes. (A) p27 is a substrate of CK2-alpha-prime. […] In vitro kinase assays employing recombinant wt.p27 (1 μg) or phosphorylation site mutants of p27 as substrates were incubated with recombinant CK2-alpha-prime/beta (200 ng). Aliquots of the reaction mixtures were resolved on SDS-PAGE, electrotransferred to nitrocellulose membranes, and the amount of incorporated radioactive [^32P}-label into p27 was quantified with a PhosphorImager and ImageJ software. Individual membranes were probed with anti-CK2-alpha-prime, anti-p27 (input), or phosphorylation site specific antibodies to p27. […] Samples were resolved on SDS-PAGE, transferred to nitrocellulose-membranes, and the amount of incorporated radioactive label into histones was quantified with a PhosphorImager and ImageJ. The input amount of each CK2-alpha-prime and p27 protein used in the kinase reaction mixtures was monitored by immunoblot analysis employing anti-His. […] Biochemically fractionated extracts corresponding to 4×10^5 cells per lane were analyzed by immunoblotting employing antibodies as indicated on the left. […]

[2] = Ang infusion 1.4 μg/kg per minute 14 days, TAT.protein 10 mg/kg i.p. once daily
[3] = saline infusion, TAT.protein 10 mg/kg i.p. once daily 14 days
[4] = saline infusion, TAT.protein 10 mg/kg i.p. once daily 14 days, 8-weeks of age

Molecule | FS (WT mice; [2]) | LVEDD (WT mice; [2]) | LVEF (WT mice; [2]) | LVESD (WT mice; [2]) | PWD (WT mice; [2]) | LVEDD (WT mice; [3]) | LVEF (WT mice; [3]) | LVESD (WT mice; [3]) | PWD (WT mice; [3]) | FS (WT mice; [4]) | further results
B1 | 54 ± 3.2% | 4.5 ± 0.2 mm | 81 ± 3.5% | 2.3 ± 0.1 mm | 1.2 ± 0.2 mm | 3.6 ± 0.2 mm | 69 ± 2.1% | 1.4 ± 0.1 mm | 0.7 ± 0.1 mm | 41 ± 1.8% | cardiac hypertrophy to Ang II (heart/body weight ratio, myocyte area, ANF/BNP mRNA) (WT mice; Ang II-treated WT mice, TAT.proteins 10 mg/kg i.p. once daily 14 days): No anti-hypertrophic effect; FS (p27 KO mice; [2]): 56 ± 3.9%; LVEDD (p27 KO mice; [2]): 4.6 ± 0.2 mm; LVEF (p27 KO mice; [2]): 82 ± 3.8%; LVESD (p27 KO mice; [2]): 2.3 ± 0.2 mm; PWD (p27 KO mice; [2]): 1.1 ± 0.1 mm; FS (p27 KO mice; [3]): 42 ± 2.4%; LVEDD (p27 KO mice; [3]): 3.7 ± 0.2 mm; LVEF (p27 KO mice; [3]): 73 ± 2.6%; LVESD (p27 KO mice; [3]): 1.3 ± 0.1 mm; PWD (p27 KO mice; [3]): 0.6 ± 0.2 mm
B2 | 55 ± 3.9* % | 4.6 ± 0.1* mm | 82 ± 2.8* % | 2.4 ± 0.1* mm | 1.3 ± 0.1* mm | 4.5 ± 0.2^# mm | 83 ± 3.1^# % | 2.4 ± 0.2^# mm | 1.3 ± 0.2^# mm | 52 ± 2.0^# % | cardiac hypertrophy in the absence of Ang II (WT mice; WT mice, saline, TAT.protein 10 mg/kg i.p. once daily): did induce cardiac hypertrophy; S83/T187 phosphorylation of p27 in cardiomyocytes [1]: rescued the detrimental impact of siCK2-alpha-prime on p27 phosphorylation
